Data from patent US20060147463A1.

Experiments:
alcohol dehydrogenase = experiment: cell-based or functional assay
[1] = target: carboxy-terminal truncated Hsp20 (Babesia bovis) (Babesia bovis); experiment: size exclusion FPLC (Superose 6) (self-association)

Row | Substance | molar ratio of greatest reduction in light scattering at time infinity (molar ratio Hsp20 to ADH) (alcohol dehydrogenase) | reduction in light scattering of ADH at 58° C., 60 minutes, molar ratio 2:1 Hsp20:ADH (alcohol dehydrogenase) [fold] | percent of protein as dimer [1] [%]
1 | His-tagged Hsp20 from Babesia bovis (full length) | 2 | 2.3 | 
2 | carboxy-terminal truncated Hsp20 (Babesia bovis) |  |  | 42
